Test results as given in paper doi:10.1101/2022.08.08.503162.

Biological target: His6-tagged luminal domain (ectodomain) of human SR-B1, amino acids 33-444 (human) (UniProt Q8WTV0)
Assay: MST

Substance: full-length APOA1-Milano expressed in 293F cells (protein A-APOA1-Milano construct) (from UniProt P02647 19-267) (natural protein)
- Kd: 2.06 µM
